Reference: US20130230532A1 (HONG KONG UNIVERSITY OF SCIENCE AND TECHNOLOGY, published 2013)
One block for each binder: values may come before it.

Experiments:
AKAP450 = target: T1, AKAP450 (UniProt Q99996 1-3907, limits assumed); test: anti-FLAG co-immunoprecipitation from HEK293T, immunoblot
T1 construct: Endogenous protein detected by immunoblot; also called AKAP350; CG-NAP
Description: The immunoprecipitated proteins and inputs were analyzed by immunoblotting and quantified. […] Data shown are means±S.D. from three independent experiments. […] The arrow indicates a transfected cell. Boxed areas are enlarged. Scale bars, 5 μm.
(§1) Anti-FLAG immunoprecipitation was performed using anti-FLAG-coupled beads (M2, Sigma) in cell extracts prepared with a lysis buffer (20 mM Tris-HCl, pH7.4, 150 mM NaCl, 1 mM EDTA, 1% Triton X-100, 1 mM dithiothreitol, and the Protease Inhibitor Cocktail). Immunoprecipitated proteins were detected by immunoblotting.

EB1 = target: T2, EB1 (UniProt Q15691 2-268); test: anti-FLAG co-immunoprecipitation, immunoblot
T2 construct: Endogenous protein detected by immunoblot or mass spectrometry; also called endogenous EB1
T2 sequence (looked up): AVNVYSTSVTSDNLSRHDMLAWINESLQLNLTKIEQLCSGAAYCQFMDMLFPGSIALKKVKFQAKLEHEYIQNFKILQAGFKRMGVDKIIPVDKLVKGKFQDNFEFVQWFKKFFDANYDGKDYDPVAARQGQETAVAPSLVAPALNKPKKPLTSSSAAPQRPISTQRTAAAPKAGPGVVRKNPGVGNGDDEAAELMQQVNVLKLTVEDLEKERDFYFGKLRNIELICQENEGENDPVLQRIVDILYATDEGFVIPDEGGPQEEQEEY
Description: (§2) After anti-FLAG immunoprecipitation, the immunoprecipitates and inputs were probed on immunoblots. […] Scale bars, 5 μm.
as §1

GFP-EB3 = target: T3, GFP-EB3 (UniProt Q9UPY8 1-281); test: anti-FLAG co-immunoprecipitation from HEK293T, anti-GFP immunoblot
T3 construct: not shown: GFP tag
Description: as §2, §1

T1 sequence (Q99996 whole entry): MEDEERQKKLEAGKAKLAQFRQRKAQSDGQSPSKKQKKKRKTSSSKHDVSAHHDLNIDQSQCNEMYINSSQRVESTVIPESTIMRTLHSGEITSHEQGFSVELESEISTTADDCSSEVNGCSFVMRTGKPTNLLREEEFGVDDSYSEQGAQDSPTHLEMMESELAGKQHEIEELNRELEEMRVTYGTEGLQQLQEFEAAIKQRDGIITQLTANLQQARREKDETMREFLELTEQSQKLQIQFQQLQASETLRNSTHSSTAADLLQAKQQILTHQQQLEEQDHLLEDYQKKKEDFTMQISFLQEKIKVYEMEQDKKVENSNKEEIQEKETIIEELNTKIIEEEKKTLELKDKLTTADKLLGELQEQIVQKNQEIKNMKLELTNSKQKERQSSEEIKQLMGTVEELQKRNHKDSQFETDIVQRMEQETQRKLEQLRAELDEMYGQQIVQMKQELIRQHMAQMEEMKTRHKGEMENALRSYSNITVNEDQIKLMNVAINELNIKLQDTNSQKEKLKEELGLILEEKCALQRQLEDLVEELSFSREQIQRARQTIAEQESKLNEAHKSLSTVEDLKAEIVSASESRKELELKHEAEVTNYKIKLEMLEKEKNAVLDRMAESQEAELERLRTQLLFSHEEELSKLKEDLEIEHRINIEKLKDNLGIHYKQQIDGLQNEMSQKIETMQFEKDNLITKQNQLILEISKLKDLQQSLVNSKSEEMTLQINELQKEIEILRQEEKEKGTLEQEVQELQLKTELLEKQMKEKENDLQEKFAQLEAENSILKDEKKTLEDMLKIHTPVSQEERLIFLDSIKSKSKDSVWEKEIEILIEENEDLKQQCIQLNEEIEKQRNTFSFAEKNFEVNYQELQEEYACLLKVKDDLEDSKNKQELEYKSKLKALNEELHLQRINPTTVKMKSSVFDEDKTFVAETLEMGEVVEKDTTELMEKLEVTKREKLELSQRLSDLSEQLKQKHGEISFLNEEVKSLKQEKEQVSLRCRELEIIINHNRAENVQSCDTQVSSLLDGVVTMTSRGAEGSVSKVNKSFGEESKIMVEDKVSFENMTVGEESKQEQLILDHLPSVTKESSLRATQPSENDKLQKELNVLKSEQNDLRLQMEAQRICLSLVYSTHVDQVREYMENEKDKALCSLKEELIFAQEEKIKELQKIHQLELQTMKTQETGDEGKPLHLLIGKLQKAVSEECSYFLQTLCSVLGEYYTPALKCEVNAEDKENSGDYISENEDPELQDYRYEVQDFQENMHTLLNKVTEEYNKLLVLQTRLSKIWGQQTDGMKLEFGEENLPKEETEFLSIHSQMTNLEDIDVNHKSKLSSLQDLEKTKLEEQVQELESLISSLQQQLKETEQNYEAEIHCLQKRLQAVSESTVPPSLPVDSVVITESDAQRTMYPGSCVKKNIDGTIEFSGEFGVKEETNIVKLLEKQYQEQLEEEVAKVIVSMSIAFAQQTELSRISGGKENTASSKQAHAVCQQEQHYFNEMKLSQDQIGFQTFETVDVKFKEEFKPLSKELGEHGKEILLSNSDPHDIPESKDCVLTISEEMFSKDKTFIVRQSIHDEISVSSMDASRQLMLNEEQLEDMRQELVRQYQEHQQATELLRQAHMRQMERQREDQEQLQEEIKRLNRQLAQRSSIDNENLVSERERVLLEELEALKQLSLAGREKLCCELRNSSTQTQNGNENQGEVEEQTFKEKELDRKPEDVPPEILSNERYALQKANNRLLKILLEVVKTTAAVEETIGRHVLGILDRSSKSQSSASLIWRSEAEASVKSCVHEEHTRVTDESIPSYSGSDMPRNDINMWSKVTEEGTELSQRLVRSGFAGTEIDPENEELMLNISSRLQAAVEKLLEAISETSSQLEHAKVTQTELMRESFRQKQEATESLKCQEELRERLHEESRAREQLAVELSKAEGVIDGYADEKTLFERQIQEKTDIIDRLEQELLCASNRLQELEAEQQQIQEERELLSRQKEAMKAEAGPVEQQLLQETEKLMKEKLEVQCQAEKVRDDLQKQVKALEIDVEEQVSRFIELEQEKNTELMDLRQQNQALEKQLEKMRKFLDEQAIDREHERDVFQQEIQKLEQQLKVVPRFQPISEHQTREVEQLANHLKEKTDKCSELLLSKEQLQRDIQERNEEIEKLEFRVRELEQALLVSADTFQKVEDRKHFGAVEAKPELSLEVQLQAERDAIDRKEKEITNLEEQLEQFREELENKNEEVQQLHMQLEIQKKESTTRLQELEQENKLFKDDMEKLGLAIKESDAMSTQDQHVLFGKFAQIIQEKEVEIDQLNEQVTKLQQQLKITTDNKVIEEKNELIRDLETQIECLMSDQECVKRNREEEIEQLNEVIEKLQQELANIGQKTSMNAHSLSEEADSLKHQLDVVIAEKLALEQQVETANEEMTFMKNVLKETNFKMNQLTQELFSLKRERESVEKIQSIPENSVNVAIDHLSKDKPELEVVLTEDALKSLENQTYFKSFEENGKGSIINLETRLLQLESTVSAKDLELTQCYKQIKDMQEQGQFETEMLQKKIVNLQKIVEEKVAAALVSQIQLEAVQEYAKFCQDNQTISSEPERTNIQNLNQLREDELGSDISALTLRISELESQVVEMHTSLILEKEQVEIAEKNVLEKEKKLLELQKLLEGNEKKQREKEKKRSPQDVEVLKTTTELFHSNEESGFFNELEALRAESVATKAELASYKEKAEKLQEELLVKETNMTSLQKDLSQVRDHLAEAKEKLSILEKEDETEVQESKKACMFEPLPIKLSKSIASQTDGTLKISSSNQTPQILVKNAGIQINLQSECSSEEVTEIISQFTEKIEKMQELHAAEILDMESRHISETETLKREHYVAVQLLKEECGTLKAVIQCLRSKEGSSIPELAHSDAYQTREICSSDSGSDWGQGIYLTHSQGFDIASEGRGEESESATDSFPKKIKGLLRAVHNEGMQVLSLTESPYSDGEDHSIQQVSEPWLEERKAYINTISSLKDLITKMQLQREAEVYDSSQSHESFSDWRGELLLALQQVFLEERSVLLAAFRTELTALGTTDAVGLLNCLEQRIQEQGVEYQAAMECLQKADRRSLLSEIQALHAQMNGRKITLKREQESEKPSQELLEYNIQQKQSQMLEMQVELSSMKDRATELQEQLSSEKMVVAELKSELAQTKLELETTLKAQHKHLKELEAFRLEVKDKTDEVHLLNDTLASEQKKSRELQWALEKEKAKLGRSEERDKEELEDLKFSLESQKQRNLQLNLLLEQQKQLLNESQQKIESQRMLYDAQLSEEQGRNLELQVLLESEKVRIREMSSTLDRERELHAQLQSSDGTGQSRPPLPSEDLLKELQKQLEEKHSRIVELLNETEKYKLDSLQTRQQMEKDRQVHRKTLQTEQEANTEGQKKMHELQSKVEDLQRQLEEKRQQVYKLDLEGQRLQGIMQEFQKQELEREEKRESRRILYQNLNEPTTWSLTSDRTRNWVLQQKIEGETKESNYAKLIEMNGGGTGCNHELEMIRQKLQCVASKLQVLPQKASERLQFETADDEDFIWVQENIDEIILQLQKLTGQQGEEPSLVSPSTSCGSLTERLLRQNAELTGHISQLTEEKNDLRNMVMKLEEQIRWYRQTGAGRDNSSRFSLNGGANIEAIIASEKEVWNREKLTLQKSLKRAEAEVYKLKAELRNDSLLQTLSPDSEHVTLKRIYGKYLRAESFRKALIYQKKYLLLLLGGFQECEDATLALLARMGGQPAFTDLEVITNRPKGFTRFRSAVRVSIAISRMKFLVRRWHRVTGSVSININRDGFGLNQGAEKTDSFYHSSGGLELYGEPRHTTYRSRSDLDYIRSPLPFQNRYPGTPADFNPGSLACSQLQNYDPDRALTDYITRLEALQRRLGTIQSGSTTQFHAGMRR
T3 sequence (Q9UPY8 whole entry): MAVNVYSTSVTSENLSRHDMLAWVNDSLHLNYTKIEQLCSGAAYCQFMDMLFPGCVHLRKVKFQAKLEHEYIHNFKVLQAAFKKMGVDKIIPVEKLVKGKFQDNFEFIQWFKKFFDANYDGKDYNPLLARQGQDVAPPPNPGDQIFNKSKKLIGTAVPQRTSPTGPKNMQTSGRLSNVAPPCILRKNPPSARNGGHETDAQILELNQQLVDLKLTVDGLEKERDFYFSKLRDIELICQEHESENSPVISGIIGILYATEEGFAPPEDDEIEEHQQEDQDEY

binding result (AKAP450): no binding
B1: FLAG-tagged MMG8 fragment 390-1116 (other)
chain: HETTITQQSVSDSHLAELQEKIQQTEATNKILQEKLNEMSYELKCAQESSQKQDGTIQNLKETLKSRERETEELYQVIEGQNDTMAKLREMLHQSQLGQLHSSEGTSPAQQQVALLDLQSALFCSQLEIQKLQRVVRQKERQLADAKQCVQFVEAAAHESEQQKEASWKHNQELRKALQQLQEELQNKSQQLRAWEAEKYNEIRTQEQNIQHLNHSLSHKEQLLQEFRELLQYRDNSDKTLEANEMLLEKLRQRIHDKAVALERAIDEKFSALEEKEKELRQLRLAVRERDHDLERLRDVLSSNEATMQSMESLLRAKGLEVEQLSTTCQNLQWLKEEMETKFSRWQKEQESIIQQLQTSLHDRNKEVEDLSATLLCKLGPGQSEIAEELCQRLQRKERMLQDLLSDRNKQVLEHEMEIQGLLQSVSTREQESQAAAEKLVQALMERNSELQALRQYLGGRDSLMSQAPISNQQAEVTPTGRLGKQTDQGSMQIPSRDDSTSLTAKEDVSIPRSTLGDLDTVAGLEKELSNAKEELELMAKKERESQMELSALQSMMAVQEEELQVQAADMESLTRNIQIKEDLIKDLQMQLVDPEDIPAMERLTQEVLLLREKVASVESQGQEISGNRRQQLLLMLEGLVDERSRLNEALQAERQLYSSLVKFHAHPESSERDRTLQVELEGAQVLRSRLEEVLGRSLERLNRLETLAAIGGGELESVRIHHKHAY
notes: not shown: FLAG tag

binding result (EB1): no binding
binding result (GFP-EB3): no binding
B2: FLAG-tagged full-length MMG8(L311A/P312A) (other)
chain: MKEICRICARELCGNQRRWIFHTASKLNLQVLLSHVLGKDVPRDGKAEFACSKCAFMLDRIYRFDTVIARIEALSIERLQKLLLEKDRLKFCIASMYRKNNDDSGAEIKAGNGTVDMSVLPDARYSALLQEDFAYSGFECWVENEDQIQEPHSCHGSEGPGNRPRRCRGCAALRVADSDYEAICKVPRKVARSISCGPSSRWSTSICTEEPALSEVGPPDLASTKVPPDGESMEEETPGSSVESLDASVQASPPQQKDEETERSAKELGKCDCCSDDQAPQHGCNHKLELALSMIKGLDYKPIQSPRGSRAAIPVKSSLPGAKPGPSMTDGVSSGFLNRSLKPLYKTPVSYPLELSDLQELWDDLCEDYLPLRVQPMTEELLKQQKLNSHETTITQQSVSDSHLAELQEKIQQTEATNKILQEKLNEMSYELKCAQESSQKQDGTIQNLKETLKSRERETEELYQVIEGQNDTMAKLREMLHQSQLGQLHSSEGTSPAQQQVALLDLQSALFCSQLEIQKLQRVVRQKERQLADAKQCVQFVEAAAHESEQQKEASWKHNQELRKALQQLQEELQNKSQQLRAWEAEKYNEIRTQEQNIQHLNHSLSHKEQLLQEFRELLQYRDNSDKTLEANEMLLEKLRQRIHDKAVALERAIDEKFSALEEKEKELRQLRLAVRERDHDLERLRDVLSSNEATMQSMESLLRAKGLEVEQLSTTCQNLQWLKEEMETKFSRWQKEQESIIQQLQTSLHDRNKEVEDLSATLLCKLGPGQSEIAEELCQRLQRKERMLQDLLSDRNKQVLEHEMEIQGLLQSVSTREQESQAAAEKLVQALMERNSELQALRQYLGGRDSLMSQAPISNQQAEVTPTGRLGKQTDQGSMQIPSRDDSTSLTAKEDVSIPRSTLGDLDTVAGLEKELSNAKEELELMAKKERESQMELSALQSMMAVQEEELQVQAADMESLTRNIQIKEDLIKDLQMQLVDPEDIPAMERLTQEVLLLREKVASVESQGQEISGNRRQQLLLMLEGLVDERSRLNEALQAERQLYSSLVKFHAHPESSERDRTLQVELEGAQVLRSRLEEVLGRSLERLNRLETLAAIGGGELESVRIHHKHAY
notes: also called L311A/P312A mutant; not shown: FLAG tag

binding result (EB1): no binding
B3: FLAG-tagged MMG8 fragment 1-389 (L311A/P312A) (other)
chain: MKEICRICARELCGNQRRWIFHTASKLNLQVLLSHVLGKDVPRDGKAEFACSKCAFMLDRIYRFDTVIARIEALSIERLQKLLLEKDRLKFCIASMYRKNNDDSGAEIKAGNGTVDMSVLPDARYSALLQEDFAYSGFECWVENEDQIQEPHSCHGSEGPGNRPRRCRGCAALRVADSDYEAICKVPRKVARSISCGPSSRWSTSICTEEPALSEVGPPDLASTKVPPDGESMEEETPGSSVESLDASVQASPPQQKDEETERSAKELGKCDCCSDDQAPQHGCNHKLELALSMIKGLDYKPIQSPRGSRAAIPVKSSLPGAKPGPSMTDGVSSGFLNRSLKPLYKTPVSYPLELSDLQELWDDLCEDYLPLRVQPMTEELLKQQKLNS
notes: not shown: FLAG tag
